Data on one substance can be found in patent US7132258B1, “Nucleic acid encoding vitamin D receptor related polypeptide” (University of Massachusetts, priority 1998, dated 2006).

For assay [1], the target named is T1, PPAR (LBD of mPPARα) (Mus musculus, UniProt P23204).
T1 construct: PPAR (LBD of mPPARα); expressed in transfected cells; host or cells: Saccharomyces cerevisiae Y190
T1 sequence (P23204 239-466 limits assumed): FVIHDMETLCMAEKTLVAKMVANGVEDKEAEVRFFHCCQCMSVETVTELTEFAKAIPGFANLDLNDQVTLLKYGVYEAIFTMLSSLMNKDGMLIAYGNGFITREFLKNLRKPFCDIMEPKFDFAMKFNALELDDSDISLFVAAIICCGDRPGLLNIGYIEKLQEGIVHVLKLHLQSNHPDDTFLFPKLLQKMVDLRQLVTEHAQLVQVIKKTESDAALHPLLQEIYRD
T1 sequence (Q9Y6Q9 401-1204 E704Q partner limits assumed): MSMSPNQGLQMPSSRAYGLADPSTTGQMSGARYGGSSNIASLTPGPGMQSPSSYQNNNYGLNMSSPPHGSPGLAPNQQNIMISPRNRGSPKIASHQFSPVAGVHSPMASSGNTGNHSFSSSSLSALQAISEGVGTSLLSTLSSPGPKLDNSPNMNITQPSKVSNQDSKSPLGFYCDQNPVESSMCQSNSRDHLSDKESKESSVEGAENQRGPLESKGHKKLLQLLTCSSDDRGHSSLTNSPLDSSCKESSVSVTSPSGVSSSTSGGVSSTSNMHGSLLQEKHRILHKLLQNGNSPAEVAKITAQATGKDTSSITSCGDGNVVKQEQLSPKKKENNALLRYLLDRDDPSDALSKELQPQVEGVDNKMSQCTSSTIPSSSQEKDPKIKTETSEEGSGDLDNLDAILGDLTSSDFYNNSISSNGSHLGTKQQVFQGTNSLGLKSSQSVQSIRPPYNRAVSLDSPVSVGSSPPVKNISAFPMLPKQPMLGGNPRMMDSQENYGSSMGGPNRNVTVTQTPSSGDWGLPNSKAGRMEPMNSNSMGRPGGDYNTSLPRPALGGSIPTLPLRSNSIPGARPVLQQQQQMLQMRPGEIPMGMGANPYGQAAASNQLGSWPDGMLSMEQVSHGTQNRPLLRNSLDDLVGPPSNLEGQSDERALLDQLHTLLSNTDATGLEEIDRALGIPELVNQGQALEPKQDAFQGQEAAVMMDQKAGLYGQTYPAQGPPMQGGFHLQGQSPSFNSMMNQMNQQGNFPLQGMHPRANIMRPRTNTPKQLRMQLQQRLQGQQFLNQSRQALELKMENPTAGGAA
The experiment in a line: Yeast two-hybrid interaction with PPAR. As to conditions: β-galactosidase ONPG assay, 1 μM ligand or vehicle. It is filed as binding. The method, then:
(§1) The protein—protein interactions between RAC3 and several steroid/nuclear receptors were analyzed by the yeast two-hybrid system. The original two-hybrid clone, RAC3.1 in pGAD10 vector, was retransformed together with yeast expression vectors for Gal4 DBD fusion of selected hormone receptor genes into Y190 cells. The receptors used include RAR (full-length hRARα), RXR (full-length hRXRα), VDR (LBD of human Vitamin D receptor), PPAR (LBD of mPPARα), TR (LBD) of hTRβ), COUP (LBD of COUP-TFI). Three independent colonies from each transformation were selected and analyzed for expression of […] activities by liquid ONPG assay (FIG. 6) after treatment with 1 μM of corresponding ligands (closed bars), or with equal concentration of vehicle alone (open bars). […] The ligands used in these experiments were atRA, VitD3 (1,25-dihydroxyvitamin D3), and Wy (Wy 14,642). […] In the absence of ligand, RAC3 can interact with RAR and PPAR.

Assay [2] deals with T2, human progesterone receptor (hPR) (Homo sapiens, UniProt P06401).
T2 construct: expressed in transfected cells; host or cells: CV-1 monkey kidney cells
The experiment in a line: Coactivation of hPR on MMTV-LTR luciferase reporter in CV-1 cells. It is filed as cell-based. The following applies: coexpressed RAC3, 100 nM progesterone. The protocol:
In this experiment, transfected cells were treated with or without 100 nM of progesterone at presence or absence of coexpressed RAC3 or SRC-1 in CV-1 cells.
Thus, RAC3 is a bona fide transcriptional coactivator for mammalian steroid/nuclear hormone receptors.

Assay [3] deals with T3, RXR (full-length hRXRα) (Homo sapiens, UniProt P19793).
T3 construct: RXR (full-length hRXRα); expressed in transfected cells; host or cells: Saccharomyces cerevisiae Y190
T3 sequence (P19793 1-462): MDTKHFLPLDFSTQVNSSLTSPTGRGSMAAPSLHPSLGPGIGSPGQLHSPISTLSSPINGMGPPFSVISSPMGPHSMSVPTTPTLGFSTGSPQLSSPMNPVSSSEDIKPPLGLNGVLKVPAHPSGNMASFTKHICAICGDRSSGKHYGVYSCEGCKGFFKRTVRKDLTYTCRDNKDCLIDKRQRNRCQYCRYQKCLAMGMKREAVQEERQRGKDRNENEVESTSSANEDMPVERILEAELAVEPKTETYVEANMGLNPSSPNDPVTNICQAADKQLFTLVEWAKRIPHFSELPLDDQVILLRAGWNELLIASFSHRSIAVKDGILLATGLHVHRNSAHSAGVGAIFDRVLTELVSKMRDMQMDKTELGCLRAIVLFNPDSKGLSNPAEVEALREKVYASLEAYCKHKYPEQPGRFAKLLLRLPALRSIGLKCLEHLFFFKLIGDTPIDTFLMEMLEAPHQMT
T3 sequence (Q9Y6Q9 401-1204 E704Q partner limits assumed): T1 sequence (Q9Y6Q9 401-1204 E704Q partner limits assumed)
Briefly: Yeast two-hybrid interaction with RXR. It is filed as binding. The following applies: β-galactosidase ONPG assay, 1 μM ligand or vehicle. The protocol:
as §1

T2 sequence (P06401 whole entry): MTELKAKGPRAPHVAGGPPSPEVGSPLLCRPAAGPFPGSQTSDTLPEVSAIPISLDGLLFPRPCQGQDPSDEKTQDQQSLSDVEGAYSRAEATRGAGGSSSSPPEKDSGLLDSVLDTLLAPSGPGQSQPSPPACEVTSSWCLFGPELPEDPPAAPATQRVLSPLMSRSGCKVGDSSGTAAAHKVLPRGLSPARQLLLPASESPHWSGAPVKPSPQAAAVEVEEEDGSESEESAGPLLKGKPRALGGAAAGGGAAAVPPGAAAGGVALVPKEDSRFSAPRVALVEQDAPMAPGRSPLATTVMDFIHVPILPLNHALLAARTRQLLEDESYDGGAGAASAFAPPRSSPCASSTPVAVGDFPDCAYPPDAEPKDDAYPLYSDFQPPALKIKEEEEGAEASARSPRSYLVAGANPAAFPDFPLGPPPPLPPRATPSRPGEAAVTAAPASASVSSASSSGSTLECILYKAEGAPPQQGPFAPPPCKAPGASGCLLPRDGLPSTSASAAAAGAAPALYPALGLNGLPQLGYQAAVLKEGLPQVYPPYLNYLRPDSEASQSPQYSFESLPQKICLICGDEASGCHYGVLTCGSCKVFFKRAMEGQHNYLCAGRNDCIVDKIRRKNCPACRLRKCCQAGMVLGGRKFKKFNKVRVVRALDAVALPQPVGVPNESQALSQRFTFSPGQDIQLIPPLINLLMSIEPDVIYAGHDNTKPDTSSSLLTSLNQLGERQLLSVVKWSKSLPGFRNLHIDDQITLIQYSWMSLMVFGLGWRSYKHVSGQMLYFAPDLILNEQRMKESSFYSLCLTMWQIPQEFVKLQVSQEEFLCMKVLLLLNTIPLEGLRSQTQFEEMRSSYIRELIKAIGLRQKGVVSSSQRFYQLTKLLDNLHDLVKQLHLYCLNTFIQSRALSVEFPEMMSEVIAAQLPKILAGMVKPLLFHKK
T2 sequence (Q9Y6Q9 with tags, fused parts or gaps isoform Q9Y6Q9-5 D131E/G132A/T187P/E704Q/DEL1268-1272 partner): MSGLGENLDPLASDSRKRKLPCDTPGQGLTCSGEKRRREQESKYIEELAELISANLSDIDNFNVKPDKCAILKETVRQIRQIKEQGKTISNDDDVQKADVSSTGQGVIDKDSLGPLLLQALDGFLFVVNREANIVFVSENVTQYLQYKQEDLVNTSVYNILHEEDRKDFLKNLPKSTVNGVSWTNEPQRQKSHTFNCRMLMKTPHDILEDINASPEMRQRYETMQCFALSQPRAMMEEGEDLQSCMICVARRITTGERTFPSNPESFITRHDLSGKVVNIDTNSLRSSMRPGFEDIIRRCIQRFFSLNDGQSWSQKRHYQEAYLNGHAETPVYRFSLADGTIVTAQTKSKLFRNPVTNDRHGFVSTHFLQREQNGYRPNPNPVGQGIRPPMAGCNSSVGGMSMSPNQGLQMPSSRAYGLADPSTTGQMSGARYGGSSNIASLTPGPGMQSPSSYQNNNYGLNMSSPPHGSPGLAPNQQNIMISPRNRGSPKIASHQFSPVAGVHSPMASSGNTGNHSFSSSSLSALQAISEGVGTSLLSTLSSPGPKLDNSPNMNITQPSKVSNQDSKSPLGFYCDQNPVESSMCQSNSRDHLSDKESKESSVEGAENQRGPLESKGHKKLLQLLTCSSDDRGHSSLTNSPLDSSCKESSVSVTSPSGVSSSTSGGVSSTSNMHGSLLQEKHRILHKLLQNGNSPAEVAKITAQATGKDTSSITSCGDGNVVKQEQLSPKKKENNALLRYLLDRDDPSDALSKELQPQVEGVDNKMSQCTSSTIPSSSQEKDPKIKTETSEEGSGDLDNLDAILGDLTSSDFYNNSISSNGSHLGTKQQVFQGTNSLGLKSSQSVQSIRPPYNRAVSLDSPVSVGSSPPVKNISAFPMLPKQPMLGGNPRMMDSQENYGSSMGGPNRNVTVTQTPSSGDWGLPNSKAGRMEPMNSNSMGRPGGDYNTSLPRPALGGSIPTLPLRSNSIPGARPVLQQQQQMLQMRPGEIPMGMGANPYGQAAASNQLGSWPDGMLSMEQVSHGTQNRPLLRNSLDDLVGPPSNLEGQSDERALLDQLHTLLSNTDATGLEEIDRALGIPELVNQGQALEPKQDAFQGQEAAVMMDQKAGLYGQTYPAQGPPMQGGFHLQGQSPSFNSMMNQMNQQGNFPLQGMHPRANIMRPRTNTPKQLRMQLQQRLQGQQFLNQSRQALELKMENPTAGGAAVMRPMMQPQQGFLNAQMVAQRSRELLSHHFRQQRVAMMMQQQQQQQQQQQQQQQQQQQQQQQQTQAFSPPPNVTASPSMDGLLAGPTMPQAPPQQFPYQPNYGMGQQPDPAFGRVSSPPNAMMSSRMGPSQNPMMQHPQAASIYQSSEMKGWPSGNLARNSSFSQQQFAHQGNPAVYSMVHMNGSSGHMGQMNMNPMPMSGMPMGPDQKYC

As for “RAC3: transcriptional coactivator of steroid/nuclear receptors, protein of about 1417 amino acids (SEQ ID NO:2); RAC3.1 is the two-hybrid clone, amino acids 401–1204”, the “interaction with PPAR” value in assay [1] is reported as “ligand-dependent manner”. Also, in assay [2], the “transcriptional activation by PR on the MMTV-LTR promoter” value was “enhanced transcriptional activation”. Besides, the “interaction with RXR” value in assay [3] is “ligand-dependent manner”.
